The results in this text go back to publication PMC7537338 (2020).

In experiment [1] the target is T1, mouse CD47-IgV-Domain-hIg fusion protein (mouse, UniProt Q61735 19-140).
T1 chain: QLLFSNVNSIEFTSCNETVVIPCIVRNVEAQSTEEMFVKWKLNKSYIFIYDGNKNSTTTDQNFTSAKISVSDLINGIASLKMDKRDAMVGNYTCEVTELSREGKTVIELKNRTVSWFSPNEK
Put plainly: FACS; competition with mouse SIRPα on CHO cells. (In general: A flow cytometer gives signals particle by particle.)

The target in experiment [2] is human CD47-IgV-Domain-hIg fusion protein (human, UniProt Q08722 19-141). The experiment is described as follows: FACS; competition with human SIRPα on CHO cells.
Sequence of human CD47-IgV-Domain-hIg fusion protein (Q08722 19-141): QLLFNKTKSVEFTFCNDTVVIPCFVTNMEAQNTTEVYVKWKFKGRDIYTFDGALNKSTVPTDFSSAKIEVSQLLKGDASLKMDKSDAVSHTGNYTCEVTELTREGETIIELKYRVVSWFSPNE

Where no end group is shown, it is not given here.

B1: pep-20-D12 (peptide)
chain: AWSATWSNYWRH
modifications: also: three D-amino acid residues substituted at N- and C-terminal, places not given here
For B1, the IC50 in experiment [1] came out at 18.2 µM; in experiment [2] it was 12.1 µM.

A word on the IC50: it is the point on the concentration scale where inhibition reaches its midpoint. High values mean a need for much substance, low ones inhibition by little substance.
